The supplement of paper PMC10201428
± gives the standard deviation of the averaged measurements.

What was measured:
[1] = test system: VchCAST RNA-guided transposition machinery (E. coli BL21(DE3) host, lacZ target); assay: relative integration efficiency (T-LR orientation) vs wild-type transposon end (log2 (normalized fold change)); transposon end mutated: right end (5 bp flank + 75 bp right end); higher = more efficient transposition
Method: (§1)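 Pooled, barcoded VchCAST (Tn6677) mini-transposon donor libraries; each variable transposon-end sequence sits in a fixed pDonor mini-transposon context (10-bp barcode and cargo not included). Left- or right-end libraries were co-transformed with pEffector (TniQ-Cascade, TnsABC, lacZ crRNA, T7, 0.1 mM IPTG) into E. coli BL21(DE3) and grown 18 h at 37 C. T-LR and T-RL junction amplicons were sequenced; output/input barcode fold change was normalised to the mean of four wild-type barcodes and log2-transformed. Two biological replicates; zero-count/undetected variants carry floor values (-10 / -15), censored here. Barcode uncoupling by PCR recombination adds noise.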

[2] = test system: VchCAST RNA-guided transposition machinery (E. coli BL21(DE3) host, lacZ target); assay: relative integration efficiency (T-RL orientation) vs wild-type transposon end (log2 (normalized fold change)); transposon end mutated: right end (5 bp flank + 75 bp right end); higher = more efficient transposition
Method: as §1

| Sequence | relative integration efficiency (log2) [1] | relative integration efficiency (log2) [2] |
| --- | --- | --- |
| ACATTTGTTGATACAACCATAAAATGAATTATACACCCATAAATTGATAATTATCACACCCATAAATTGATATTGCCTCTGATCATAGTCAGACCAACATTGCTACGACCCGTATTCGCACCGACAC | -0.0536 ± 0.3 | -0.7 ± 0.18 |
| ACATTTGTTGATACAACCATTAAATGATAATTCCACCCATAATTTGATAATTATCACACCCAATTTAACTATAACGCTCTGATCATAGTCAGACCAACATTGCTACGACCCGTATTCGCACCGACAC | 2.52 ± 0.061 | -0.743 ± 0.14 |
| ACATTTGTTGATACAACCATAAAATGATAATTACACCCATAAATTGATAATTATCACACCCAGCCCGGTCGCGGTAAGAGGATCATAGTCAGACCAACATTGCTACGACCCGTATTCGCACCGACAC | 2.65 ± 0.059 | -0.344 ± 0.16 |
| ACATTTGTTGATACAACCATAAAATGATCATTACCCCCATCAATTGATAATTATCACACCCCATTTAACTATAACGCTCTGATCATAGTCAGACCAACATTGCTACGACCCGTATTCGCACCGACAC | -0.533 ± 0.18 | -3.74 ± 0.21 |
| ACATTTGTTGATACAACCATCCAATGATAATTACACCCATAAATTGATAATTATCACACCCATAAATTGATATTGCCTCTGATCATAGTCAGACCAACATTGCTACGACCCGTATTCGCACCGACAC | -2.03 ± 0.58 | -1.36 ± 0.083 |
| ACATTTGTTGATACAACCATAAAATGATAATTACTCTGATCATAGTCAGACCAACATTGCTACGACCCCACCCATAAATTGATAATTATCAGTGGGTATTTAACTATAACGGTATTCGCACCGACAC | -0.154 ± 0.0093 | -2.938 ± 0.018 |
| ACATTTGTTGATACAACCATAAAATGATAATTACACCCATAAATTGATAATTATCACACCCATAAATTGATATTGCCTCTTCATGCAGATTTGAACAGTAAGTTTACGACATTTTCAGCACCGACAC | 1.32 ± 0.14 | -0.604 ± 0.37 |
| ACATTTGTTGATACAACCATAAAATGATAATTACACCCATAAATTGATAATTAGAACACCCATAAATTGATATTGCCTCTGATCATAGTCAGACCAACATTGCTACGACCCGTATTCGCACCGACAC | -0.0187 ± 0.33 | -0.195 ± 0.2 |
| ACATTTGTTGATACAACCATAAAATGCTAATTACACCCATAAATTGCTAATTATCACACCCATAAATTGCTATTGCCTCTGATCATAGTCAGACCAACATTGCTACGACCCGTATTCGCACCGACAC | -0.567 ± 0.21 | -1.55 ± 0.13 |
| ACATTTGTTGATACAACCATAAAATGATCCTTACACCCATAAATTGATAATTATCACACCCATAAATTGATATTGCCTCTGATCATAGTCAGACCAACATTGCTACGACCCGTATTCGCACCGACAC | -0.545 ± 0.46 | -1.03 ± 0.14 |
| ACATTTGTTGATACAACCATAAAAGTCGAATTACACCCATAAATTGATAATTATCACACCCATAAATTGATATTGCCTCTGATCATAGTCAGACCAACATTGCTACGACCCGTATTCGCACCGACAC | -3.24 ± 0.7 | -2.69 ± 0.26 |
| ACATTTGTTGATACAACCATAAAATGATAATTACACCCATAAATTGATATCACACCCATAAATTGATATTGCCTCTGATCATAGTCAGACCAACATTGCTACGACCCGTATTCGCACCGACACTGAC | 2.45 ± 0.18 | -1.06 ± 0.31 |
| ACATTTGTTGATACAACCATAAAATGATAATTACCACCCCTACATTGATAATTATCACACCCATTTAACTATAACGCTCTGATCATAGTCAGACCAACATTGCTACGACCCGTATTCGCACCGACAC | -0.0894 ± 0.12 | -3.12 ± 0.17 |
| ACATTTGTTGATACAACCATAAAGTGATATTTACAACCATAAAATGATAATTATCACAACCATAAGTTGATATTTTCTCTGATCATAGTCAGACCAACATTGCTACGACCCGTATTCGCACCGACAC | -0.0726 ± 0.055 | 0.113 ± 0.034 |
| ACATTTGTGTCGACAACCATAAAATGATAATTACACCCATAAATTGATAATTATCACACCCATAAATTGATATTGCCTCTGATCATAGTCAGACCAACATTGCTACGACCCGTATTCGCACCGACAC | -2.89 ± 0.57 | -0.916 ± 0.027 |
| ACATTTGTAAAAAAAACCATACGTTGATTTTACGAAACCATACGCTGAAATAATCACAACCATAACTTGAAATTGCCTCTGATCATAGTCAGACCAACATTGCTACGACCCGTATTCGCACCGACAC | < -10 | -6.63 ± 1.2 |
| ACATTTGTTGATACAACCATAAAATGATAATTACACCCATAAATTGATAATTTAGTCACCCATAAATTGATATTGCCTCTGATCATAGTCAGACCAACATTGCTACGACCCGTATTCGCACCGACAC | 0.247 ± 0.11 | -0.447 ± 0.07 |
| ACATTTGTTGATACAACCATAAAATGATAATTACAACCATAAAATGATAATTATCACAACCATAAAATGATAATTACTCTGATCATAGTCAGACCAACATTGCTACGACCCGTATTCGCACCGACAC | -0.536 ± 0.21 | -0.193 ± 0.0064 |
| ACATTTGTTGATACAACCATATATTGATATCTCCAACCATAAAGTGATATTTATCACAACCATATATTGATATCTCCTCTGATCATAGTCAGACCAACATTGCTACGACCCGTATTCGCACCGACAC | -0.237 ± 0.36 | -0.515 ± 0.17 |
| ACATTTGTTGATACAACCATAAAATGATAATTACACCCATAAATTGATATATATCACACCCATAAATTGATATTGCCTCTGATCATAGTCAGACCAACATTGCTACGACCCGTATTCGCACCGACAC | 4.91e-05 ± 0.14 | -0.313 ± 0.16 |
| ACATTTGTTGATACAACCATAAAATGATAATTACACCCATAAATTGATAATTATCACACCCATAAATTGATATTGCAGCTGATCATAGTCAGACCAACATTGCTACGACCCGTATTCGCACCGACAC | 0.0166 ± 0.64 | 0.131 ± 0.028 |
| ACATTTGTTGATACAACCATAAAATGATAATTACTCTGCACCCATAAATTGATAATTATCAGTGGGTATTTAACTATAACGATCATAGTCAGACCAACATTGCTACGACCCGTATTCGCACCGACAC | 0.872 ± 0.43 | -2.05 ± 0.21 |
| ACATTTGTTGATACAACCATAAAATGATAATTACTCTGATCATAGTCAGACACCCATAAATTGATAATTATCACACCCATAAATTGATATTGCCCAACATTGCTACGACCCGTATTCGCACCGACAC | -0.838 ± 0.091 | -3.73 ± 0.17 |
| ACATTTGTTGATACAACCATAAAATGATAATTACACCCATAAATTGATAATTATCACACCCATAAATTGATATTGCCAACCATAAAATGATAATTACTCTGATCATAGTCAGACCAAGCACCGACAC | -0.138 ± 0.05 | -1.11 ± 0.39 |
| ACATTTGTTGATACAACCATAAAATGATAATTACTCTGACACCCATAAATTGATAATTATCACACCCATAAATTGATATTGCTCATAGTCAGACCAACATTGCTACGACCCGTATTCGCACCGACAC | 0.8247 ± 0.0022 | -2.73 ± 0.083 |
| ACATTTGTTGATACAACCATAAAATGATAATTACACCCAGCCCTTGATAATTATCACACCCATAAATTGATATTGCCTCTGATCATAGTCAGACCAACATTGCTACGACCCGTATTCGCACCGACAC | -2.1 ± 0.29 | -1.99 ± 0.04 |
| ACATTTGTTGATACAACCATAAAATGATAAGGACACCCATAAATTGATAATTATCACACCCATAAATTGATATTGCCTCTGATCATAGTCAGACCAACATTGCTACGACCCGTATTCGCACCGACAC | -0.358 ± 0.15 | -0.956 ± 0.034 |
